According to the supplement of paper PMC10201428:
± gives the standard deviation of the averaged measurements.

Tests used:
[1] = tested on: VchCAST RNA-guided transposition machinery (E. coli BL21(DE3) host, lacZ target); assay: relative integration efficiency (T-LR orientation) vs wild-type transposon end (log2 (normalized fold change)); transposon end mutated: left end; higher = more efficient transposition
Outline: (§1)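 Barcode abundances in input plasmids and in genomic integration junctions were obtained by PCR amplification and Illumina sequencing. These came from E. coli BL21(DE3) co-transformed with a T7-driven effector plasmid and a pUC57 donor carrying 1549 left-end or 1849 right-end transposon variants, then plated with 0.1 mM IPTG at 37°C for 18 h. Relative integration efficiency is the output/input fold change, normalised to reference barcodes and log-transformed.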

[2] = tested on: VchCAST RNA-guided transposition machinery (E. coli BL21(DE3) host, lacZ target); assay: relative integration efficiency (T-RL orientation) vs wild-type transposon end (log2 (normalized fold change)); transposon end mutated: left end; higher = more efficient transposition
Outline: as §1

Sequence	relative integration efficiency (log2) [1]	relative integration efficiency (log2) [2]
AATGTTGTTGATGCAACCATAAAGTGATATTTATAATTATTTATAATCAGCAACTTAACCACAAAACAACCATATATTGATATCTCACAAAACAACCATAAGTTGATATTTTTGTGAATCGAGTATTTCAGCAAAACTACTGCAGTAAGAAA	-0.645 ± 0.95	-0.877 ± 0.61
AATGTTGTTGATGCACCCATAAATTGATAATTAATAATTATTTATAATCAGCAACTTAACCACAAAACAACCATAAAATGATAATTAACAAAAGTTGGTATTCAACTATAAAATGTGAATCGAGTATTTCAGCAAAACTACTGCAGTAAGAA	-0.947 ± 1.4	-2.86 ± 1.1
AATGTTGTTGATGCAACCATAAAGTGATATTTAAGCTATACTCTAGGTATCTAACTTGTCCCATTGCCAACCATATATTGATATCTCACAAAACAACCATAAGTTGATATTTTTGTGAATCGAGTATTTCAGCAAAACTACTGCAGTAAGAA	-3.91 ± 1.4	-4.82 ± 1.4
AATGTTGTTGATGCAACCATAAAGTGATATTTAACAAGACTAACATTATTAGTAACTGAGAACTATGCAACCATATATTGATATCTCACAAAACAACCATAAGTTGATATTTTTGTGAATCGAGTATTTCAGCAAAACTACTGCAGTAAGAA	-2.85 ± 0.45	-2.4 ± 0.87
AATGTTGTTGATGCAACCATAAAGTGATATTTAATAATTATTTATAATCAGCAACTTAACCACAAAACAACCATATATTGATATCTCACACAACCATAAGTTGATATTTTTGTGAATCGAGTATTTCAGCAAAACTACTGCAGTAAGAAAGT	-1.4 ± 0.91	-3.26 ± 0.94
AATGTTGTTGATGCACCCATAAATTGATATTGCATAATTATTTATAATCAGCAACTTAACCACAAAACAACCATAAAATGATAATTAACAAAAGTTGGTATTCAACTATAAAATGTGAATCGAGTATTTCAGCAAAACTACTGCAGTAAGAA	-1.26 ± 0.57	-3.11 ± 1.5
AATGTTGTTGATGCAACCATAAAGTGATATTTAATAATTATTTATAATCAGCAACTTAACCACAAAACAACCATATATTGCGCGAGACACCCCACCAACGCCTGGTCGCGGGGGTGTCCGATCTGATTTCAGCAAAACTACTGCAGTAAGAA	-2.63 ± 0.53	-4.62 ± 1.1
AATGTTGTTGATGCAACCATAAAGTGATATTTAATAATTATTTATAATCAGCAACTTAACCACAAAATGTGAATCGAGTATTTCAGCAAAACCAACCATATATTGATATCTCACAAAACAACCATAAGTTGATATTTTTACTGCAGTAAGAA	-3.73 ± 1.1	-4.28 ± 1
AATGTTGTTGATGCACCCATAAATTGATAATTAATAATTATTTATAATCAGCAACTTAACCACAAAACAACCATAAAGTGATATTTAACAAAAGTTGGTATTCAACTATAAAATGTGAATCGAGTATTTCAGCAAAACTACTGCAGTAAGAA	-1.55 ± 1.7	-2.92 ± 1.1
AATGTTGTTGATGCAACCATAAAGTGATATTTACCGACTGTCTGCCATCAGCCGCTTAACCGCAGCCCAACCATATATTGATATCTCACAAAACAACCATAAGTTGATATTTTTGTGAATCGAGTATTTCAGCAAAACTACTGCAGTAAGAA	-3.56 ± 0.14	-3.07 ± 0.93
AATGTTGTTGATGCAACCATAAAGTGATATTTAATAATTATTTATAATCAGCAACTTAACCACAAAACACAACGCGCGGTCGCGAGACACCCCACCAACGCCTGGTCGCGGGGGTGTCCGATCTGATTTCAGCAAAACTACTGCAGTAAGAA	-4.26 ± 0.12	-6.99 ± 3
AATGTTGTTGATGCAACCATAAAGTGATATTTAATAATTATTTATAATCAGCAACTTAACCACAAAACAACCATCGCGGTCGCGAGACACCCCACCAACGCCTGGTCGCGGGGGTGTCCGATCTGATTTCAGCAAAACTACTGCAGTAAGAA	-3.94 ± 2.1	-7.35 ± 1.8
AATGTTGTTGATGCAACCATAAAGTGATATTTAATCAACCATAAAGTGATATTTAACTTAACCACAACAACCATATATTGATATCTCACAAAACAACCATAAGTTGATATTTTTGTGAATCGAGTATTTCAGCAAAACTACTGCAGTAAGAA	-0.257 ± 1.2	-4.54 ± 1.2
AATGTTGTTGATGCAACCATAAAGTGATATTTAATAATTATTTATACAACCATAAAGTGATATTTAACAACCATATATTGATATCTCACAAAACAACCATAAGTTGATATTTTTGTGAATCGAGTATTTCAGCAAAACTACTGCAGTAAGAA	-4.48 ± 0.05	-6.31 ± 0.44
AATGTTGTTGATGCAACCATAAAGTGATATTTAATAATTATTTATAATCAGCAACTTAACCACAAAACAACCATATATTGATATCTCACAAAACAACCATAAGTTGATATGTGAATCGAGTATTTCAGCAAAACTACTGCAGTAAGAAAGTT	-0.00636 ± 0.11	-0.276 ± 0.26
AATGTTGTTGATGCAACCATAAAGTGATATTTAATCCGGCGGGCGCCGACTACCAGGCCAACACCCCACCAACGCGCGGTCGCGAGACACCCCACCAACGCCTGGTCGCGGGGGTGTCCGATCTGATTTCAGCAAAACTACTGCAGTAAGAA	-4.25 ± 1	-6.75 ± 1.3

Sequence	relative integration efficiency (log2) [1]	relative integration efficiency (log2) [2]
AATGTTGTTGATGCAACCATAAAGTGATATTTAATAATTATTTATAATCAGCAACTTAACCACAAAACAACCATATATTGATATCTCACAAAAGTTGGTATTCAACTATAAAATGTGAATCGAGTATTTCAGCAAAACTACTGCAGTAAGAA	-0.838 ± 0.94	-2.5 ± 0.79
AATGTTGTTGATGCAACCATAAAATGATAATTAATAATTATTTATAATCAGCAACTTAACCACAAAACAACCATAAAATGATAATTATTTTGTCAACCATAAAATGATAATTATGTGAATCGAGTATTTCAGCAAAACTACTGCAGTAAGAA	-1.36 ± 1.1	-1.39 ± 0.9
AATGTTGTTGATGCAACCATAAAGTGATATTTACAACCATATATTGATATCTCACAAAACAACCATAAGTTGATATTTTATAATTATTTATAATCAGCAACTTAACCACAAAATGTGAATCGAGTATTTCAGCAAAACTACTGCAGTAAGAA	0.848 ± 1	-1.4 ± 0.65
AATGTTGTTGATGCACCCATAAATTGATATTGCATAATTATTTATAATCAGCAACTTAACCACAAAACAACCATAAAGTGATATTTAACAAAAGTTGGTATTCAACTATAAAATGTGAATCGAGTATTTCAGCAAAACTACTGCAGTAAGAA	-1.73 ± 0.93	-3.26 ± 1
AATGTTGTTGATGCAACCATAAAGTGATATTTAATAATTATTTATAATCAGCAACTTAACCACAAAACAACCATATATTGATATCTCACAAAACAACACGCCTGGTCGCGGGGGTGTCCGATCTGATTTCAGCAAAACTACTGCAGTAAGAA	-0.741 ± 1.6	-2.49 ± 0.9
AATGTTGTTGATGCAACCATAAAGTGATATTTAATAATTATTTATAAGACTACCAGGCCAACACCCCACCAACGCGCGGTCGCGAGACACCCCACCAACGCCTGGTCGCGGGGGTGTCCGATCTGATTTCAGCAAAACTACTGCAGTAAGAA	-6.04 ± 3.5	-6.62 ± 1.2
AATGTTGTTGATGCAACCATAAAATGATAATTAATAATTATTTATAATCAGCAACTTAACCACAAAACAACCATAAAATGATAATTAACAAAATAATTATCATTTTATGGTTGTGTGAATCGAGTATTTCAGCAAAACTACTGCAGTAAGAA	0.0912 ± 1.6	-3.63 ± 0.84
AATGTTGTTGATGCAACCATAAAGTGATATTTAATAATTATTTATAATCAGCAACTTAACCACAAAACAACCATATATTGATATCTCACAAAAACCAACGCCCTGTCGCGGGCTGTGAATCGAGTATTTCAGCAAAACTACTGCAGTAAGAA	-1.71 ± 0.47	-2.5 ± 0.88
AATGTTGTTGATGCAACCATAAAGTGATAGGGCCGCCGGCGGGCGCCGACTACCAGGCCAACACCCCACCAACGCGCGGTCGCGAGACACCCCACCAACGCCTGGTCGCGGGGGTGTCCGATCTGATTTCAGCAAAACTACTGCAGTAAGAA	-5.19 ± 2.5	-7.44 ± 1.6
AATGTTGTTGATGCAACCATAAAGTGATATTTAATAATTATTTATAATCAACCATATATTGATATCTCCAGCAACTTAACCACAAAAACAAAACAACCATAAGTTGATATTTTTGTGAATCGAGTATTTCAGCAAAACTACTGCAGTAAGAA	-2.65 ± 0.85	-3 ± 0.78
AATGTTGTTGATGCAACCATAAAGTGATATTTAATAATTATCAACCATATATTGATATCTCTTATAATCAGCAACTTAACCACAAAAACAAAACAACCATAAGTTGATATTTTTGTGAATCGAGTATTTCAGCAAAACTACTGCAGTAAGAA	-2.13 ± 1.5	-4.57 ± 1.7
AATGTTGTTGATGCAACCATAAAGTGATATTTAGCCGCTTCCGGGGCTGCCCTCTAAGCGCGAGCGCCAACCATATATTGATATCTCACAAAACAACCATAAGTTGATATTTTTGTGAATCGAGTATTTCAGCAAAACTACTGCAGTAAGAA	-0.565 ± 0.97	-3.92 ± 1.2
AATGTTGTTGATGCAACCATAAAGTGATATTTATACCGTTCGTATAATGTATGCTATACCAAGTTATCAACCATATATTGATATCTCACAAAACAACCATAAGTTGATATTTTTGTGAATCGAGTATTTCAGCAAAACTACTGCAGTAAGAA	-3.21 ± 0.88	-4.32 ± 1.2
AATGTTGTTGATGCAACCATAAAGTGAGCGGGCATAATTATTTATAATCAGCAACTTAACCACAAAACAACCATATATTGAGCGAGAACAAAACAACCATAAGTTGAGCGGGGTGTGAATCGAGTATTTCAGCAAAACTACTGCAGTAAGAA	-4.11 ± 0.54	-6.46 ± 1.3
AATGTTGTTGATGCAACCATAAAGTGATATTTAATAATTATTTATAATCAGCAACTTAACCACAAAACAACCATATATTGATATCTCACAAAACAACCATAAGTTGATTGTGAATCGAGTATTTCAGCAAAACTACTGCAGTAAGAAAGTTA	-0.858 ± 0.1	-0.574 ± 0.38
